How the values were obtained:
XIAP = XIAP (Homo sapiens, UniProt P98170); experiment: In vitro ubiquitylation assay of purified XIAP; assay type: biochemical
Experimental: In vitro ubiquitylation assays—In vitro ubiquitylation assays were carried out as previously described (29). IAP proteins (200 nM) were incubated with or without Smac polypeptide for 2 hours at 30° C. in a reaction system containing 50 mM Tris-HCl (pH 7.5), 50 mM NaCl, 2 mM Mg-ATP, 20 μM mammalian ubiquitin, 100 nM rabbit ubiquitin-activating enzyme (E1) and 400 nM of recombinant human ubiquitin-conjugating enzymes (E2). The reactions were stopped by adding equal volumes of 2×SDS sample loading buffer followed by Western Blot analysis.
To determine whether Smac promotes auto-ubiquitylation of XIAP, purified XIAP (without tag) was incubated for 2 hours at 30° C. either with or without different concentrations of Smac or with Smac ΔA in the reconstituted ubiquitylation reaction system (Ub Mix) consisting of 50 mM Tris-HCl (pH 7.5), 50 mM NaCl, 2 mM Mg-ATP, 20 μM mammalian ubiquitin, 100 nM rabbit ubiquitin-activating enzyme (E1) and 400 nM UbCH6 (E2). The reactions were stopped by adding equal volumes of 2×SDS sample loading buffer and the products were subjected to SDS-PAGE followed by immunoblotting with anti-XIAP antibody. The purified XIAP was active in directing poly-ubiquitylation. But the auto-ubiquitylation of XIAP was not enhanced by Smac.

Livin β = target: T1, Livin β (Homo sapiens, UniProt Q96CA5); experiment: Co-transfection of HeLa cells with Livin β and Smac plasmids, Western blot; assay type: cell-based; details: data not shown
T1 construct: expressed in transfected cells; host or cells: HeLa
T1 sequence (Q96CA5 1-280 isoform Q96CA5-2): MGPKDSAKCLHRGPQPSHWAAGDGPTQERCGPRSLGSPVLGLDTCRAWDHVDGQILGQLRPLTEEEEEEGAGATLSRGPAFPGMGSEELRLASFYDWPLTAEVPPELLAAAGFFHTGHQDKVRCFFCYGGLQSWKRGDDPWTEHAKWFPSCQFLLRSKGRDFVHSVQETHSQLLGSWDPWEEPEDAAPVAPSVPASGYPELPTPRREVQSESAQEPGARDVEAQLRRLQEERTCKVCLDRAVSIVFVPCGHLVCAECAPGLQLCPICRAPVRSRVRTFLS
Experimental: Transfection of cultured Cells—HeLa cells were grown in DMEM supplemented with 10% fetal bovine serum. Cells were seeded onto 6-well plates the day before transfection and transfected at 70% confluence by using Lipofectin combined with Plus reagent (Invitrogen) according to the manufacture's protocols. The IAP expression plasmids (3 μg each for c-IAP1, c-IAP2 and XIAP, and 250 ng each for Livin αand Livin β) together with 2.5 μg of Smac expression plasmids or pcDNA3.1(−) blank plasmid were used for single-well transfection in the absence of antibiotics. The cells were harvested 12 hours after the transfection and lysed with 0.5% CHAPS in 20 mM HEPES (pH 7.4), 10 mM KCl, 1 mM MgCl2 and 1 mM DTT. The lysates were centrifuged and the protein concentrations of the supernatants were quantified by the modified Bradford method (36).
Western Blot analysis—Proteins were resolved by SDS-PAGE and transferred to nitrocellulose filters. The filters were blocked with 5% milk and probed with antibodies as indicated. The signals were visualized with the enhanced chemiluminescence method.
In the current study, Livin was also transiently expressed in HeLa cells to determine the ubiquitylation activity (see FIG. 3B). Briefly, Livin α WT or H269A mutant plasmids together with Smac WT or Smac ΔA mutant, or with pcDNA3.1(−) blank plasmid, were co-transfected into HeLa cells. […]

Sequence of XIAP (P98170 whole entry): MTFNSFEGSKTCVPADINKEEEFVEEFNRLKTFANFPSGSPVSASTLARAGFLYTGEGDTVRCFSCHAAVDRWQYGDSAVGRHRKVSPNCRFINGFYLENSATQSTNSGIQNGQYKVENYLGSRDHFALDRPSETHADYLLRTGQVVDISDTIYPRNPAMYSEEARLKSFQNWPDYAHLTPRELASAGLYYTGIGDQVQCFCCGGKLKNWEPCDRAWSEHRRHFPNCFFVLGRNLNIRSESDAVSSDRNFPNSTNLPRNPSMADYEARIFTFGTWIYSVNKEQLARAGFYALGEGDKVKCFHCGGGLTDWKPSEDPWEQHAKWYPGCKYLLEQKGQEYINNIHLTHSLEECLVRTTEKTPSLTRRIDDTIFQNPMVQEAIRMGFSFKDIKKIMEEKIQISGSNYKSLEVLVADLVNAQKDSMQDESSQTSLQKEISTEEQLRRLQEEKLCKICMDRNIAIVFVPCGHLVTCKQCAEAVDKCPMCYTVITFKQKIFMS

B1: Smac: wild type (WT) Smac polypeptide from Homo sapiens, SEQ ID NO 1, 239 amino acids; second mitochondria-derived activator of caspase (protein, listed as Homo sapiens)
chain: MAALKSWLSRSVTSFFRYRQCLCVPVVANFKKRCFSELIRPWHKTVTIGFGVTLCAVPIAQKSEPHSLSSEALMRRAVSLVTDSTSTFLSQTTYALIEAITEYTKAVYTLTSLYRQYTSLLGKMNSEEEDEVWQVIIGARAEMTSKHQEYLKLETTWMTAVGLSEMAAEAAYQTGADQASITARNHIQLVKLQVEEVHQLSRKAETKLAEAQIEELRQKTQEEGEERAESEQEAYLRED
XIAP; UbCH6 as E2, FIG. 6
  amount of ubiquitylated forms of XIAP with a high molecular weight of ~150 kDa: slightly reduced
XIAP; purified XIAP without tag, UbCH6 as E2, 2 hours at 30° C., FIG. 6
  auto-ubiquitylation of XIAP in vitro: not enhanced
Livin β
  transfection results of Livin β (auto-ubiquitylation, degradation): substantially similar to that of Livin α
